From patent publication US20140341937A1 (US Dept. of Health and Human Services, published 2014)

Experiments:
CCR8 = target: T1, CCR8 (human, UniProt P51685 1-355); assay: flow cytometry on receptor-expressing cells
T1 construct: whole, on cells; also called human CCR8; HEK/CCR8

CCR4 = target: T2, CCR4 (human, UniProt P51679 1-360); assay: flow cytometry on CEM cells, anti-EDN antibody detection
T2 construct: whole, on cells; also called human CCR4; CCR4 on CEM cells
T2 sequence (looked up): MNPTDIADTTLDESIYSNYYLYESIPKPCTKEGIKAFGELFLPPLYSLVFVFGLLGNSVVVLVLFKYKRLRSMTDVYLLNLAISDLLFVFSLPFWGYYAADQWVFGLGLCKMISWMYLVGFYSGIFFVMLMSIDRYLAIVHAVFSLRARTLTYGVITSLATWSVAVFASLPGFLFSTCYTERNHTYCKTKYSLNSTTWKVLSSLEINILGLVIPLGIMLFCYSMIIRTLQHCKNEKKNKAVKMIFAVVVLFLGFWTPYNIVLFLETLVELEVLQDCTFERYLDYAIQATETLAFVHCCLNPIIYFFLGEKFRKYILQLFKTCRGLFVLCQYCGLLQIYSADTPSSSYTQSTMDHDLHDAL

T1 sequence (P51685 whole entry): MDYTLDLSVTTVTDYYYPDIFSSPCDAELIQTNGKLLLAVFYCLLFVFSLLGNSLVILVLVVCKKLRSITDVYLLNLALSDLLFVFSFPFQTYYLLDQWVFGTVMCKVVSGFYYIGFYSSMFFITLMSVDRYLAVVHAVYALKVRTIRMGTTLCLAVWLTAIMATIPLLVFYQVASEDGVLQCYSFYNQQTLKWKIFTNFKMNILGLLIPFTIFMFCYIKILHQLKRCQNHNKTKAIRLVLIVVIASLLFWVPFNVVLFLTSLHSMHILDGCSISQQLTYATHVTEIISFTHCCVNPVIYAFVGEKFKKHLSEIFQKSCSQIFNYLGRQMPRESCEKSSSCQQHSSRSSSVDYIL

B1: eosinophil-derived neurotoxin (EDN) (enzyme, human, UniProt P10153 28-161, looked up)
chain: KPPQFTWAQWFETQHINMTSQQCTNAMQVINNYQRRCKNQNTFLLTTFANVVNVCGNPNMTCPSNKTRKNCHHSGSQVPLIHCNLTTPSPQNISNCRYAQTPANMFYIVACDNRDQRRDPPQYPVVPVHLDRII
notes: Unfused control protein; also called EDN alone; toxin alone
- binding result (CCR8): no binding
- binding result (CCR4): no binding (tested: 50 µg/ml)
